The experiment has as its target Human retinol binding protein (RBP) (human, UniProt P02753 19-201). Kind of experiment: native gel or EMSA; purified TTR (0.5 uM) incubated with human RBP (0-4 uM) at 4 °C for 2 h; free and RBP-bound TTR separated by native PAGE (10%), western blot with anti-TTR and ECL; Kd by Scatchard analysis assuming a 1:2 TTR:RBP complex; low TTR/RBP molar ratio. The settings on record: both partners purified. (In EMSA bound probe runs differently from free probe, usually more slowly.)

B1: Crocodylus porosus transthyretin (TTR), recombinant (natural protein)
chain: not shown
notes: Transthyretin, Crocodylus porosus, recombinant wild type; The discussion says all TTRs were secreted as a tetramer; also called C. porosus TTR; crocTTR; source: Pichia pastoris, secreted into the culture medium, purified (preparative native PAGE)
For B1, the Kd amounted to 1420 nM.

For orientation: Kd means a measure of binding affinity in units of concentration.

The record behind these values is PMC5715260, “Increasing the length and hydrophobicity of the C‐terminal sequence of transthyretin strengthens its binding affinity to retinol binding protein” (FEBS Open Bio, 2017).
